Consider three substances from PMC2230226.

For orientation: stoichiometry N means the number of molecules, sites or subunits per partner or assembly.

For experiment [1], the target named is urokinase (uPA) (UniProt P00749).
The target in experiment [2] is bovine factor Xa (bovine).
The target in experiment [3] is human plasma kallikrein (human) (UniProt P03952).
The target of experiment [4] is bovine pancreatic trypsin (bovine).
The target in experiment [5] is human plasmin (human).
Experiment [6] has as its target human α-thrombin (human). Nature of the experiment: native gel or EMSA; 500 ng human thrombin or bovine trypsin in 25 mM Tris-HCl pH 8.0, 190 mM glycine, mixed with increasing boophilin, 15 min at room temperature; 10% Tris-glycine polyacrylamide gel at 4°C, silver-stained. On the technique in general: Mobility shift assays separate free from complexed probe on a gel.

Experiment [7] deals with bovine pancreatic trypsin (bovine). The experiment is described as above.
Experiment [8] has the same target. Nature of the experiment: enzyme inhibition kinetics (progress curves, chromogenic substrate); slow-binding inhibition; second-order rate constant k2/Ki from kobs; 0.2 mM Chromozym TH (trypsin, 6.25 ng/ml) or Chromozym PL (plasmin, 12.5 µg/ml); boophilin 0.1-0.65 µM (trypsin) or 0.04-0.4 µM (plasmin); 45 min at 37°C.
Experiment [9] addresses bovine α-thrombin (bovine). Nature of the experiment: enzyme inhibition (amidolytic activity, chromogenic substrate); Ki of thrombin inhibition; tight-binding kinetics assumed, apparent (native inhibitor); the conditions of the Ki determination itself are not told.
For experiment [10], the target named is human plasmin (human). Nature of the experiment: enzyme inhibition kinetics (progress curves, chromogenic substrate); slow-binding inhibition; second-order rate constant k2/Ki from kobs; 0.2 mM Chromozym TH (trypsin, 6.25 ng/ml) or Chromozym PL (plasmin, 12.5 µg/ml); boophilin 0.1-0.65 µM (trypsin) or 0.04-0.4 µM (plasmin); 45 min at 37°C.
Target sequence in this assay (P00747 20-580, chain 1 of 2): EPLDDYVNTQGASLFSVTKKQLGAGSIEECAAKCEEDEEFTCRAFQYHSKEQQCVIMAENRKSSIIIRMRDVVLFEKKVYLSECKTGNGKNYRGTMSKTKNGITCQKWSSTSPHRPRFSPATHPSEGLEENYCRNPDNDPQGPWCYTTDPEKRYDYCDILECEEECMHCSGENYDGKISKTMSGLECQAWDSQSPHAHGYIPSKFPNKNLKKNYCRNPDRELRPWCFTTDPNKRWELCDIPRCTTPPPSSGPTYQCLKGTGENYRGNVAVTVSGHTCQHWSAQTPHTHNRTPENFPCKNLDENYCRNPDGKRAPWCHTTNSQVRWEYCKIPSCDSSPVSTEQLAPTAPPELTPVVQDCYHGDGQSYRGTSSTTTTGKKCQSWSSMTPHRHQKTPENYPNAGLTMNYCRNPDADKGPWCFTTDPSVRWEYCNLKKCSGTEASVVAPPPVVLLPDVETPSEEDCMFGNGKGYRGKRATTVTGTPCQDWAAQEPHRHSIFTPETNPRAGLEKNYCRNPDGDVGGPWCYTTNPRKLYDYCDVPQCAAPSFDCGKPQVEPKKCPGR
Target sequence in this assay (P00747 581-810, chain 2 of 2): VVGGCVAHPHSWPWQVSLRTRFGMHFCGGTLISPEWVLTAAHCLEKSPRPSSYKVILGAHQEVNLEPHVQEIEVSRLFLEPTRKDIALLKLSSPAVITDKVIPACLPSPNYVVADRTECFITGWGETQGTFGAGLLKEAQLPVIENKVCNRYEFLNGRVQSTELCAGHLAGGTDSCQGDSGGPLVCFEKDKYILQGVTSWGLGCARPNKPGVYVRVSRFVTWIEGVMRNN
For experiment [11], the target named is recombinant human FVIIa (NovoSeven) (human) (UniProt P08709).
Chain of recombinant human FVIIa (NovoSeven) (human) (P08709 61-212, chain 1 of 2): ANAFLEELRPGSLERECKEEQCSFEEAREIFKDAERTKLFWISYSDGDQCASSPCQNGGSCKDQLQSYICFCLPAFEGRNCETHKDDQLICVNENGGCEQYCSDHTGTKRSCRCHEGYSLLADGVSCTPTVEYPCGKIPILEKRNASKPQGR
Chain of recombinant human FVIIa (NovoSeven) (human) (P08709 213-466, chain 2 of 2): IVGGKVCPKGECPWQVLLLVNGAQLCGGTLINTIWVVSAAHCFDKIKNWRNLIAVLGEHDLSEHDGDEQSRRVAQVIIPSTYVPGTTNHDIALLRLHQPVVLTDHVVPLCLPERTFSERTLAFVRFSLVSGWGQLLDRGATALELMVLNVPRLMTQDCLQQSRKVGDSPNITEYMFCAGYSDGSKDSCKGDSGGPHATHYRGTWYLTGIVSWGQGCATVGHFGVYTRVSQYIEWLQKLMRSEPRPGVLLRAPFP
The target of experiment [12] is recombinant sc-tPA (UniProt P00750).
Chain of recombinant sc-tPA (P00750 36-562): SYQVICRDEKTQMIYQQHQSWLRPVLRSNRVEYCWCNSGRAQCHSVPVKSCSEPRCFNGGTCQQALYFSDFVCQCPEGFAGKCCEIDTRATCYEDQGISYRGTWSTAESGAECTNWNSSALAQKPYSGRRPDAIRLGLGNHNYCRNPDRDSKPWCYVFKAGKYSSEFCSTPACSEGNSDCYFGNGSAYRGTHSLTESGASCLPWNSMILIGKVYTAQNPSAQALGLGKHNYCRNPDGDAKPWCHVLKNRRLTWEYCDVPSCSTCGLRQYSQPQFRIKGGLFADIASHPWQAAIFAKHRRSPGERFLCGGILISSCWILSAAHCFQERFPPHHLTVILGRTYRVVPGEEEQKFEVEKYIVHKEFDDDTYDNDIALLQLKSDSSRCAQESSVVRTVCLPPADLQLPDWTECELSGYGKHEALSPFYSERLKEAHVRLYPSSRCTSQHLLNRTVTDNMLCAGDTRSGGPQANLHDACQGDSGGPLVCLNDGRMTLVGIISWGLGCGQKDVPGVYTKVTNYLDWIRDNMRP
In experiment [13] the target is human α-FXIIa (human) (UniProt P00748).
Chain of human α-FXIIa (human) (P00748 20-372, chain 1 of 2): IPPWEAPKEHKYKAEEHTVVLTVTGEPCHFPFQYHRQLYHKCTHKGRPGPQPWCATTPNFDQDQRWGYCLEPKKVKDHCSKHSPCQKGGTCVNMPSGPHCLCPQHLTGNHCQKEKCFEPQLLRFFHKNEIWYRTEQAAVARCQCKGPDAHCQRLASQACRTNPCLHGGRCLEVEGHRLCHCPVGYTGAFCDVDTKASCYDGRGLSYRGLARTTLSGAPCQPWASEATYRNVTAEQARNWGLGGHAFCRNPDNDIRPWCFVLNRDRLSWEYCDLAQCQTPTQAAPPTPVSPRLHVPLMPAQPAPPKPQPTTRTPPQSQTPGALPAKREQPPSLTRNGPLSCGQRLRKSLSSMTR
Chain of human α-FXIIa (human) (P00748 373-615, chain 2 of 2): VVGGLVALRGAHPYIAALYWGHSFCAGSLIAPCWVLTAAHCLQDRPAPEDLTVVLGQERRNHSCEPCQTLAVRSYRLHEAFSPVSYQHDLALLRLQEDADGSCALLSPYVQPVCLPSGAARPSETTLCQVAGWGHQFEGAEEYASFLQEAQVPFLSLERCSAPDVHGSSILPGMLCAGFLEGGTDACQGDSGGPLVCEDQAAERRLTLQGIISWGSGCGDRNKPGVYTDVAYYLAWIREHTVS
Experiment [14] has as its target recombinant tryptase (UniProt Q15661).

Chain of human plasma kallikrein (human) (P03952 20-390, chain 1 of 2): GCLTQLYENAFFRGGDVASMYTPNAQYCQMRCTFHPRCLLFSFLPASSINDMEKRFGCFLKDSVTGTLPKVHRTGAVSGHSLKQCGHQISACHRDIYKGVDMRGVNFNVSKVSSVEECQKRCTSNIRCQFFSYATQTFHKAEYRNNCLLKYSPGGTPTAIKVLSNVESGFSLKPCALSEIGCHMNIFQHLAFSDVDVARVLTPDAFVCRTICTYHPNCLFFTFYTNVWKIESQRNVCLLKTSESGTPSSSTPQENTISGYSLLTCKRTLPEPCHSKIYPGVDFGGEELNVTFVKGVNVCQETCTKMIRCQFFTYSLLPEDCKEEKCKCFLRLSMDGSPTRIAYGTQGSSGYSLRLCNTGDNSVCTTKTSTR
Chain of human plasma kallikrein (human) (P03952 391-638, chain 2 of 2): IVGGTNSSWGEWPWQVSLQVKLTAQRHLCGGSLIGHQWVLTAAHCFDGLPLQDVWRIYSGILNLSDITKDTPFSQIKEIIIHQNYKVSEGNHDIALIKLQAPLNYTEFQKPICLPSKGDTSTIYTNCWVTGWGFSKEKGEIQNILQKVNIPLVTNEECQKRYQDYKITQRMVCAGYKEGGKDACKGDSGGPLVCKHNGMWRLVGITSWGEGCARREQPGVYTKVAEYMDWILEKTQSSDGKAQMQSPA
Chain of recombinant tryptase (Q15661 19-275): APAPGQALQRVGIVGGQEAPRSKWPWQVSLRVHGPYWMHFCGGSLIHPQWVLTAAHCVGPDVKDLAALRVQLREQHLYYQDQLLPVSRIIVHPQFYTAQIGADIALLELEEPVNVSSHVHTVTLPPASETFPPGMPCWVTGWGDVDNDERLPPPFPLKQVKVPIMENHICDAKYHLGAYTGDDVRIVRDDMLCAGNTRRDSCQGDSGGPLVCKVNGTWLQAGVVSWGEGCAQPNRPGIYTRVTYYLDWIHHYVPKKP

native boophilin (natural protein) yielded an Inhibition of amidolytic activity (%), native inhibitor 3.53 µM, substrate Pefachrome uPA in [1] of 16%. Further, the Inhibition of amidolytic activity (%), native inhibitor 3.53 µM, substrate Chromozym X in [2] is 10%. Besides, the Inhibition of amidolytic activity (%), native inhibitor 3.53 µM, substrate Chromozym PK in [3] is 66%. The same substance registered an Inhibition of amidolytic activity (%), native inhibitor 3.53 µM, substrate Pefachrome tPA in experiment [4] of 97%. In experiment [5], this substance displayed an Inhibition of amidolytic activity (%), native inhibitor 3.53 µM, substrate Chromozym PL of 87%. The stoichiometry N in experiment [6] and in experiment [7] was 1 in each case. Besides, the second order rate constant k2/Ki in experiment [8] was 308000 M⁻¹ s⁻¹. The Ki in experiment [9] came to 1.8 nM.

For the substance “recombinant boophilin (full-length mature protein, variant H2) (from UniProt Q8WPI2 16-142) (natural protein)”, the Inhibition of amidolytic activity (%), recombinant inhibitor (full-length) 2.36 µM, substrate Pefachrome tPA in [4] worked out at 98%. Further, in experiment [5], the Inhibition of amidolytic activity (%), recombinant inhibitor (full-length) 2.36 µM, substrate Chromozym PL was 95%. Further, the results for the second order rate constant k2/Ki in [8] and in experiment [10] were 384000 M⁻¹ s⁻¹ and 259000 M⁻¹ s⁻¹, respectively. The Ki in [9] was 3.4 nM.

“isolated C-terminal boophilin domain (domain or fragment)”: the Inhibition of amidolytic activity (%), recombinant inhibitor (C-terminal domain) 15.2 µM, substrate Chromozym tPA in [11] came to 0%. For the same substance, the Inhibition of amidolytic activity (%), recombinant inhibitor (C-terminal domain) 15.2 µM, substrate Pefachrome tPA is 2% in [12] and 80% in [4]. In addition, in experiment [13], the Inhibition of amidolytic activity (%), recombinant inhibitor (C-terminal domain) 15.2 µM, substrate Pefachrome FXIIa amounted to 0%. Moreover, the Inhibition of amidolytic activity (%), recombinant inhibitor (C-terminal domain) 15.2 µM, substrate Chromozym TH in [14] was 8%. The Inhibition of amidolytic activity (%), recombinant inhibitor (C-terminal domain) 15.2 µM, substrate Pefachrome uPA in experiment [1] worked out at 17%. Moreover, the Inhibition of amidolytic activity (%), recombinant inhibitor (C-terminal domain) 15.2 µM, substrate Chromozym X in [2] was 0%. Besides, the Inhibition of amidolytic activity (%), recombinant inhibitor (C-terminal domain) 15.2 µM, substrate Chromozym PK in experiment [3] worked out at 0%. Moreover, in experiment [5], the Inhibition of amidolytic activity (%), recombinant inhibitor (C-terminal domain) 15.2 µM, substrate Chromozym PL worked out at 25%.
